Test results taken from doi:10.1101/2020.06.17.158394 (bioRxiv, 2020).

Experiments:
KaiC = biological target: T1, KaiC (S. elongatus, UniProt Q79PF4 1-519); test: fluorescence polarisation
T1 sequence: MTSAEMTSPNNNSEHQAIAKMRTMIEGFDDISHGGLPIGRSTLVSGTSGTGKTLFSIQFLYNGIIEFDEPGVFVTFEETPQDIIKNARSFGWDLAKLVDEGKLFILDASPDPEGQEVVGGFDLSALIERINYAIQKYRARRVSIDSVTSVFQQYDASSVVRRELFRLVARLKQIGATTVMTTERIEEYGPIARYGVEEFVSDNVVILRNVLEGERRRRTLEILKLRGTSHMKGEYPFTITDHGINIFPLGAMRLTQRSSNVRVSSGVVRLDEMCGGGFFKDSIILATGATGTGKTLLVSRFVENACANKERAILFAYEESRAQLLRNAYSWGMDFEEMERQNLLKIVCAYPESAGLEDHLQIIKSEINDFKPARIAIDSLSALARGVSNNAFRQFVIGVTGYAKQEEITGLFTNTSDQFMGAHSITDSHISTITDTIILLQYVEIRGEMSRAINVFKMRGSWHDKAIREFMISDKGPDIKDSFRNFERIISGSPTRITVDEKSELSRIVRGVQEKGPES

KaiC-EE (S. elongatus) = KaiC-EE (S. elongatus) (UniProt Q79PF4); test: fluorescence polarisation

binding result (KaiC): binds | fold increase in affinity against SasAtrx (KaiC-EE (S. elongatus)): > 100 fold
B1: full-length SasA (enzyme)
chain: MGESLSPQALAQPLLLQLFVDTRPLSQHIVQRVKNILAAVEATVPISLQVINVADQPQLVEYYRLVVTPALVKIGPGSRQVLSGIDLTDQLANQLPQWLVQQEAFFADREPPEVNIPFTELGQPETPALQQADAFFQLQQQYADLSERTKFLEQVIALVAHDLRNPLTAALLAVDTIQIRSQSFSVATAKEMQGLCSLFDQARSQLREIERMIAEILEATRHSGESLRINPREVVFEPLLQQVLEQLHERWRSKQQQLITDVPGDLPTLYADPDRLRQVLVNLLDNAIKYTPPGGTITIAALHRTSQKVQISISDTGSGIPRDQLSVIFKNLVRLSRDSSQEGYGIGLSVCQRIVQAHFGRIWVASELGQGSTFHFTMPVYRYTMPC
